Source: US20030170785A1 (ORTHO MCNEIL PHARMACEUTICAL, published 2003)

What was measured:
[1] = target: CaV1.2 (α1C) L-type calcium channel subunit; assay: cell-based or functional assay
[2] = target: T1, Protein A Sepharose CL-4B (Pharmacia) (UniProt P38507 37-477); assay: immunoprecipitation from HEK293 lysates with protein-A beads only, Western blot with anti-HA Ab
T1 construct: Used alone (without anti-CaV1.2 antibody) as the negative control of the reciprocal immunoprecipitation; also called protein-A beads
Procedure: Formation of a stable complex of α₂δ-4 with other channel subunits was tested by coimmunprecipitation. The α₂δ-4 subunit was first tagged with an HA epitope and co-transfected with CaV1.2 (α1C) and β₃ subunits into HEK cells. Co-immunoprecipitation was carried out with transient transfected HEK 293 cells by constructs of α1C, β₃ and α₂δ-4 tagged with HA epitope. Two days after the transfection, the cells (from two 150 mm plates) were harvested and washed with PBS. The cells were then resuspended in 2 ml of detergent extraction buffer: 1% (vol/vol) Nonidet P-40, 0.5% deoxycholate, 150 mM NaCl, 5 mM EDTA, 50 mM Tris-HCl (pH 8.0) and 20 μl of protease inhibitor cocktail (Sigma), followed 10 passages each through 20 and 26-gauge needles. Cell extracts were cleared by centrifugation. […] After incubated at 4° C. for overnight, the beads were precipitated by brief centrifugation, and washed 3 times with 1 ml of lysis buffer. Finally, 100 μl of 1×SDS loading buffer were added, and 20 μl were subjected to 4-20% SDS. The co-precipitated subunits were then analyzed by Western blot with indicated antibodies.

B1: human calcium channel α2δ-4 subunit (other)
chain: MAVALGTRRRDRVKLWADTFGGDLYNTVTKYSGSLLLQKKYKDVESSLKIEEVDGLELVRKFSEDMENMLRRKVEAVQNLVEAAEEADLNHEFNESLVFDYYNSVLINERDEKGNFVELGAEFLLESNAHFSNLPVNTSISSVQLPTNVYNKDPDILNGVYMSEALNAVFVENFQRDPTLTWQYFGSATGFFRIYPGIKWTPDENGVITFDCRNRGWYIQAATSPKDIVILVDVSGSMKGLRMTIAKHTITTILDTLGENDFVNIIAYNDYVHYIEPCFKGILVQADRDNREHFKLLVEELMVKGVGVVDQALREAFQILKQFQEAKQGSLCNQAIMLISDGAVEDYEPVFEKYNWPDCKVRVFTYLIGREVSFADRMKWIACNNKGYYTQISTLADTQENVMEYLHVLSRPMVINHDHDIIWTEAYMDSKLLSSQAQSLTLLTTVAMPVFSKKNETRSHGILLGVVGSDVALRELMKLAPRYKLGVHGYAFLNTNNGYILSHPDLRPLYREGKKLKPKPNYNSVDLSEVEWEDQAESLRTAMINRETGTLSMDVKVPMDKGKRVLFLTNDYFFTDISDTPFSLGAVLSRGHGEYILLGNTSVEEGLHDLLHPDLALAGDWIYCITDIDPDHRKLSQLEAMIRFLTRKDPDLECDEELVREVLFDAVVTAPMEAYWTALALNMSEESEHVVDMAFLGTRAGLLRSSLFVGSEKVSDRKFLTPEDEASVFTLDRFPLWYRQASEHPAGSFVFNLRWAEGPESAGEPMVVTASTAVAVTVDKRTAIAAAAGVQMKLEFLQRKFWAATRQCSTVDGPYTQSCEDSDLDCFVIDNNGFILISKRSRETGRFLGEVDGAVLTQLLSMGVFSQVTMYDYQAMCKPSSHHHSAAQPLVSPISAFLTATRWLLQELVLFLLEWSVWGSWYDRGAEAKSVFHHSHKHKKQDPLQPCDTEYPVFVYQPAIREANGIVECGPCQKVFVVQQIPNSNLLLLVTDPTCDCSIFPPVLQEATEVKYNASVKCDRMRSQKLRRRPDSCHAFHPEVRVEADRGWAGFSSPNPLCLGLCPCRQEHIGMPMNTPVPVLLGGNIRVYAL
[1]
  Ca^2+ influx (fluorescence change after depolarization with 50 mM KCl) in transfected HEK 293 cells: 6 fold

B2: human calcium channel α2δ-4 subunit tagged with HA epitope (other, not shown: small tags and cut ends)
chain: MAVALGTRRRDRVKLWADTFGGDLYNTVTKYSGSLLLQKKYKDVESSLKIEEVDGLELVRKFSEDMENMLRRKVEAVQNLVEAAEEADLNHEFNESLVFDYYNSVLINERDEKGNFVELGAEFLLESNAHFSNLPVNTSISSVQLPTNVYNKDPDILNGVYMSEALNAVFVENFQRDPTLTWQYFGSATGFFRIYPGIKWTPDENGVITFDCRNRGWYIQAATSPKDIVILVDVSGSMKGLRMTIAKHTITTILDTLGENDFVNIIAYNDYVHYIEPCFKGILVQADRDNREHFKLLVEELMVKGVGVVDQALREAFQILKQFQEAKQGSLCNQAIMLISDGAVEDYEPVFEKYNWPDCKVRVFTYLIGREVSFADRMKWIACNNKGYYTQISTLADTQENVMEYLHVLSRPMVINHDHDIIWTEAYMDSKLLSSQAQSLTLLTTVAMPVFSKKNETRSHGILLGVVGSDVALRELMKLAPRYKLGVHGYAFLNTNNGYILSHPDLRPLYREGKKLKPKPNYNSVDLSEVEWEDQAESLRTAMINRETGTLSMDVKVPMDKGKRVLFLTNDYFFTDISDTPFSLGAVLSRGHGEYILLGNTSVEEGLHDLLHPDLALAGDWIYCITDIDPDHRKLSQLEAMIRFLTRKDPDLECDEELVREVLFDAVVTAPMEAYWTALALNMSEESEHVVDMAFLGTRAGLLRSSLFVGSEKVSDRKFLTPEDEASVFTLDRFPLWYRQASEHPAGSFVFNLRWAEGPESAGEPMVVTASTAVAVTVDKRTAIAAAAGVQMKLEFLQRKFWAATRQCSTVDGPYTQSCEDSDLDCFVIDNNGFILISKRSRETGRFLGEVDGAVLTQLLSMGVFSQVTMYDYQAMCKPSSHHHSAAQPLVSPISAFLTATRWLLQELVLFLLEWSVWGSWYDRGAEAKSVFHHSHKHKKQDPLQPCDTEYPVFVYQPAIREANGIVECGPCQKVFVVQQIPNSNLLLLVTDPTCDCSIFPPVLQEATEVKYNASVKCDRMRSQKLRRRPDSCHAFHPEVRVEADRGWAGFSSPNPLCLGLCPCRQEHIGMPMNTPVPVLLGGNIRVYAL
notes: Expressed by transient co-transfection with CaV1.2 (α1C) and β3 in HEK293 cells and tested in detergent lysates; also called α2δ-4(HA)
[2]
  binding result: no binding
